Results: the nanobody polyreactivity screen of Harvey et al. (2022)

Assay: yeast display, Sf9 membrane polyspecificity reagent, FACS + sequencing; frameworks hold sequencing errors
In short: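 Polyreactivity labels are assigned by the sorting gate from which each nanobody was recovered. The gates were low and high (top ~1%), set on anti-HA fluorescence for expression and streptavidin fluorescence for reagent binding. Before sorting, galactose-induced (36–48 hours) yeast display cells were stained for 1 hour at 4 °C with 10% biotinylated, detergent-solubilized Sf9 membrane reagent.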
In the case of “QVQLVESGGGLVQAGGSLRLSCAASGSTFNNYAMGSYRQAPGKVREFVAAINGSGGSTYYADSVKGRFTISRDNAKNTVYLQLNSRKPEDPAVYYCAADVSATAYYDLMDYWVQGTQVTVSS”, the “polyreactivity (PSR sort gate)” value is reported as “low polyreactivity”. For “QVQLVESGGGLVQAGGSLRLSCAASGSTFNQNAMGWYRQATGKERELVAAITVDGSSTYYADSVKGRFTISRDNAKNTVYLQMNSLKPEDTAVYYCAAGYSARSSGYTGGYDYWGQGTQVTVSS”, the “polyreactivity (PSR sort gate)” value was “high polyreactivity”. For “QVQLVESGGGLVQAGGSLRLSCAASGSTFNRYAMGWYRQAPGKERELVASITTSDSTNYADSVNGRFTISRDNANNTVFLQINSLNPEDTAVYYCNAEVRGVWYTYDYWGQGTHVTVSS”, the “polyreactivity (PSR sort gate)” value was “low polyreactivity”. With “QVQLVESGGGLVQAGGSLRLSCAASGSTFNTYAMGWYRQAPGKERELVASIRLRGGSTYYADSVKGRFTISRDNAKNTVYLQMNSLKPEDTAVYYCAARTWPWVLGGTQDDYWGQGTQVTVSS” the “polyreactivity (PSR sort gate)” value was “low polyreactivity”. For “QVQLVESGGGLVQAGGSLRLSCAASGSTFNVYAMGWYRQAPGKERDLVAAIDSGDSTNYADSVKGRFTISRDNAKNTVYLEMNSLKPEDTAVYYCAVGYWDSRYRYDWPNSDYWGQGTQVTVSS”, the “polyreactivity (PSR sort gate)” value was “low polyreactivity”. With “QVQLVESGGGLVQAGGSLRLSCAASGSTFNVYGLGWYRQAPGKERELVAAINRDGITYADSVKGRFTISRDNAKNTVYLQMNSLKPEDTAVYYCAAGYSPYKGSAGYYWGQGTQVTVSS” the “polyreactivity (PSR sort gate)” value was “low polyreactivity”. For “QVQLVESGGGLVQAGGSLRLSCAASGSTFNWDAMGWYRQAPGQERELVAAISKSGGTTYYADSVKGRFTISRDNAKNTVYLQMNSLKPEDTAVYYCAAVRRYHSYPDGGYWGQGTQVTVSS”, the “polyreactivity (PSR sort gate)” value was “high polyreactivity”. For “QVQLVESGGGLVQAGGSLRLSCAASGSTFNWNAMRWYRQPPGKERELVAAITSSGARTRYADSVKGRFTISRDNAKNTVYLQMNSLKPEDTAVYYCAAYVYISPSGYYYWGLGTQVTVSS”, the “polyreactivity (PSR sort gate)” value was “low polyreactivity”. For “QVQLVESGGGLVQAGGSLRLSCAASGSTFNWYAMGWYRQAPGKEMELVAAITSTGGSTYADSVKGRFTISRDNAKNTVYLQMNSLKPEDTAVYYCNVDTSSPSRRDYDYWGQGTQVTVSS”, the “polyreactivity (PSR sort gate)” value was “low polyreactivity”. For “QVQLVESGGGLVQAGGSLRLSCAASGSTFPFYAMGWYRQAPGKERELVAAIRYTGNTYYADSVKGRFTISRDNAKNTVFLLMISLKPEDTAVYYCAADADYWAYGYWGHGTQVTVSS”, the “polyreactivity (PSR sort gate)” value was “low polyreactivity”. With “QVQLVESGGGLVQAGGSLRLSCAASGSTFPFYAMGWYRQAPGKERELVATISSDGSTNYADSVKGRFTISRDNAKNTDYLQMNSLKPEDTAVYYCNALARWCAYYDYGYWGQGTQVTVSS” the “polyreactivity (PSR sort gate)” value was “low polyreactivity”. With “QVQLVESGGGLVQAGGSLRLSCAASGSTFPFYVMGWYRQAPGKERELVASITATGSSTYYADSVKGRFTISRDNAKNTVYLQMNRLKPEDTAVYYCAAPYFGWYLGYYWYREYDYWGQGTQVTVSS” the “polyreactivity (PSR sort gate)” value was “low polyreactivity”. In the case of “QVQLVESGGGLVQAGGSLRLSCAASGSTFPGNAMGWYRQAPGKERELVAAIDTSGGSTYYADSVKGRFTISRDNAKNTVYLQMNSLKAEDTAVYYCDADYLIEMDYWGQGTQVTVSS”, the “polyreactivity (PSR sort gate)” value is reported as “low polyreactivity”. In the case of “QVQLVESGGGLVQAGGSLRLSCAASGSTFPGYAMGWYRQAPGKERELVAAISKRGGSTYYADSVKGRFTISRDNAKNTVYLQMNSLKPEDTAVYYCATVSRKYSLDYWGQGTQVTVSS”, the “polyreactivity (PSR sort gate)” value is reported as “high polyreactivity”. With “QVQLVESGGGLVQAGGSLRLSCAASGSTFPGYAMGWYRQAPGKERELVAAITWSGVTTYYADTVKGRFTMSRDNAKNTVYIQMNSLKPEDTAVYYCATGTLYSDGAIYGYWGQATQVTVSS” the “polyreactivity (PSR sort gate)” value was “low polyreactivity”. With “QVQLVESGGGLVQAGGSLRLSCAASGSTFPKYAMGWYRQAPGKERELVAAITFTGSSTYYADSVKGRFTISRDNAKNTVYLQMNSLKPEDTAVYYCNAVYYTGYYWGQGTQVTVSS” the “polyreactivity (PSR sort gate)” value was “low polyreactivity”. In the case of “QVQLVESGGGLVQAGGSLRLSCAASGSTFPLYAMGWYRQAPGKERELVATITGSGGSTNYADSVKGRFTISRDNAKNTVYLQMNSLKPEDTAVYYCNARRRRLVSYYYWGQGTQVTVSS”, the “polyreactivity (PSR sort gate)” value is reported as “high polyreactivity”. In the case of “QVQLVESGGGLVQAGGSLRLSCAASGSTFPLYAMGWYRQAPGKEREMVAAITGGGGRTYYADSVKGRFTISRDNAKNTVYLQMNSLKPEDTAVYYCNAVVYLTNYWYDYWGQGTQVTVSS”, the “polyreactivity (PSR sort gate)” value is reported as “low polyreactivity”. For “QVQLVESGGGLVQAGGSLRLSCAASGSTFPNYAMGWYRQAPGKERELVASISVTTGSTYYADSVKGRFTISRDYAKNTVYLQMNSLKPEDTAVYYCAKRTSSRKFRGAYNYWGQGTQVTVST”, the “polyreactivity (PSR sort gate)” value was “high polyreactivity”. With “QVQLVESGGGLVQAGGSLRLSCAASGSTFPNYPMGWYRQAPGKERELVAAITWSGGSTDYADSVKGRFTISRDNAKNTVYLQMNSLKPEDTAVYYCNADFGYWWDGRRYDYWGQGTQVTVSS” the “polyreactivity (PSR sort gate)” value was “low polyreactivity”. For “QVQLVESGGGLVQAGGSLRLSCAASGSTFPPNAMGRYRQAPGKERELVAAISFSSGRTYYADSVKGRFTFSRDNAKNTVYLQMNSLKPEDTAVYYCAADHGYLGQGTQVTVSS”, the “polyreactivity (PSR sort gate)” value was “low polyreactivity”. For “QVQLVESGGGLVQAGGSLRLSCAASGSTFPPNAMGWYRQAPGKERELVAGINGSGGRTYYADSVKGRFTISRDNAKNTVYLQLNCMKPEDTAVYYCAAEGTTIWFDLTYDDWYEYYSWGQGTQVTVSS”, the “polyreactivity (PSR sort gate)” value was “high polyreactivity”. With “QVQLVESGGGLVQAGGSLRLSCAASGSTFPPYVMGWYRQAPGKERELVAAITWSSGSTYYADSVKGRFTISRDNAKNTVYLQMNSLKPEDTAVYYCAAKWLGYGFDYWGQGTQVTVSS” the “polyreactivity (PSR sort gate)” value was “low polyreactivity”. In the case of “QVQLVESGGGLVQAGGSLRLSCAASGSTFPRNAMGWYRQAPGKERELVATITSSGGGTYYADSVKGRFTISRDNAKNTVYLQMNSLKPEDTAVYYCNVEVHPYYWVDNFHRFPVLHNYWGQGTQVTVSA”, the “polyreactivity (PSR sort gate)” value is reported as “low polyreactivity”. With “QVQLVESGGGLVQAGGSLRLSCAASGSTFPRNDMGWYRQAPGKERELVAAISRGGSTNNADSVKGRFTISRDNAKNTVYLQMNSLKPEDTAVYYCAAQIFESAYGMDYWGQGTQVTVSS” the “polyreactivity (PSR sort gate)” value was “low polyreactivity”. With “QVQLVESGGGLVQAGGSLRLSCAASGSTFPRYAMGWYRPAPGKERELVARISNSGASTYYADSVKGRFTISRDNAKNTVYLQMNSLKPEDTAVYYCNARRYSRPSGFKHYHYAESDYWGQGTQVTVSS” the “polyreactivity (PSR sort gate)” value was “high polyreactivity”. With “QVQLVESGGGLVQAGGSLRLSCAASGSTFPSNAMGWYRQAPGKERELVAAISSGGRTYYADSVKGRFTISRDNAKNTVYLQMNSLKPEDTAVYYCAADTDRRSPFDYWGQGTQVTVSS” the “polyreactivity (PSR sort gate)” value was “high polyreactivity”. In the case of “QVQLVESGGGLVQAGGSLRLSCAASGSTFPSNVMGWNRQAPVKERELVAAITWSGVRTYYADSVKGRFTISRDNAKNTVYLQMNSLKPEDTAVYYCAARSTYVRYDYWGQGTQVTVSS”, the “polyreactivity (PSR sort gate)” value is reported as “high polyreactivity”. For “QVQLVESGGGLVQAGGSLRLSCAASGSTFPSYAMGWSRQAPGKERELVAAISRSGGSTYYADSVKGRFTISRDNAKNTVYLQMISLKPEDTAVYYCAARGHLRYESDYWGQGTQVTVSS”, the “polyreactivity (PSR sort gate)” value was “high polyreactivity”. For “QVQLVESGGGLVQAGGSLRLSCAASGSTFPSYAMGWYRQAPGKERELVAAINSGGGTNYADSVKGRFTISRDTAKNTVYLQMNSLKPEDTAVYYCAKARYDYTKPEGGYWGQGTHVTVSS”, the “polyreactivity (PSR sort gate)” value was “low polyreactivity”. For “QVQLVESGGGLVQAGGSLRLSCAASGSTFPSYAMGWYRQAPGKERELVAAISGSGTSTYYADSVKGRFTISRDNAKNTVYLQMNSRKPEDTAVYYCRAVWLSTYLGWGRDYWGQGTQVTVSS”, the “polyreactivity (PSR sort gate)” value was “high polyreactivity”. In the case of “QVQLVESGGGLVQAGGSLRLSCAASGSTFPWNAMGWYRQAPGKERELVAAINYGNGSTYYADSVKGRFTISRDNAKNTVYLQMNSLKPVDTAVYYCNADFTGTRSDSVTPEYEYWGQGTQVTVSS”, the “polyreactivity (PSR sort gate)” value is reported as “low polyreactivity”. With “QVQLVESGGGLVQAGGSLRLSCAASGSTFPWYVMGWYRQAPGKERELVAAISWSGGRTYYADSVKGRFTISRDNAKNTVYLQMNSLKPEDTAVYYCAADLSYWRGGHSRNYWGQGTQVTVSS” the “polyreactivity (PSR sort gate)” value was “low polyreactivity”. In the case of “QVQLVESGGGLVQAGGSLRLSCAASGSTFPYNAMGCDRQAAGKERELVAAISFSGGITTYADSVKGRFTISRDNAKNTVYLQMNSLKPEDTAVYYCNVAYTLHFGYWGQGTQVTVSS”, the “polyreactivity (PSR sort gate)” value is reported as “low polyreactivity”. In the case of “QVQLVESGGGLVQAGGSLRLSCAASGSTFPYNAMGWYRQAPGKERELVAAITSSGRTNYADSVKGRFTITLDNAKNTVYLQMNSLKPEDTAVYYCAAGRWYAHRVDYWGQGSQVTVSS”, the “polyreactivity (PSR sort gate)” value is reported as “low polyreactivity”. For “QVQLVESGGGLVQAGGSLRLSCAASGSTFPYNAMGWYRQAPGKERELVAAITWRAGRTYYADSVKGRFTISRDNAKNTVYLQMNSLKPEDTAVYYCAKSYQRGVNHYEYWGQGTQVTVSS”, the “polyreactivity (PSR sort gate)” value was “high polyreactivity”. In the case of “QVQLVESGGGLVQAGGSLRLSCAASGSTFPYNAMGWYRQAPGKERELVAANTFSGGSTYYADSVKGRFTISRDNAKNTVYLQMNSLKPEDTAVYYCNARYPWWGQRYDYWGQGTQVTVSS”, the “polyreactivity (PSR sort gate)” value is reported as “low polyreactivity”. In the case of “QVQLVESGGGLVQAGGSLRLSCAASGSTFPYNAMGWYSPAPGKERELVAAITSAGGTNYADSVKGRFTISRDNATNTVYLQMNSLKPEDTAVYYCAADGSGYYDWYYYWGQGTQVTVSS”, the “polyreactivity (PSR sort gate)” value is reported as “low polyreactivity”. For “QVQLVESGGGLVQAGGSLRLSCAASGSTFPYYALGWSRQAPGKEREFVATISSSGGSTYYADSVKGRFTISRDNAKNTVYLQMNSLKPEDTAVYYCAARYQTSGFRYRYGYWGQGTQVTVSS”, the “polyreactivity (PSR sort gate)” value was “high polyreactivity”. For “QVQLVESGGGLVQAGGSLRLSCAASGSTFPYYAMGWYRQAPGKERELVAAISRGDSTNYADSVKGRFTISRDNAKNTVYLQMNSLKPEDTAVYYCAARLQYRRTSVKYYYWGQGTQVTVSS”, the “polyreactivity (PSR sort gate)” value was “high polyreactivity”. In the case of “QVQLVESGGGLVQAGGSLRLSCAASGSTFPYYAMGWYRQAPGKERELVAAISRRGGSTYYADSVKGRFTISRDNAKNTVYLQMNSLKPEDTAVYYCAAGYYPSSSGDDYWGQGTQVTVSS”, the “polyreactivity (PSR sort gate)” value is reported as “high polyreactivity”. In the case of “QVQLVESGGGLVQAGGSLRLSCAASGSTFPYYAMGWYRQAPGKERELVAAITSSASTYYADSVKGRFTISRDNAKNTVYLQMNSLKPEDTAVYYCAVRSPYRLSRWRVGYWGQGTQVTVSS”, the “polyreactivity (PSR sort gate)” value is reported as “high polyreactivity”. With “QVQLVESGGGLVQAGGSLRLSCAASGSTFPYYAMGWYRQAPGKERELVARISSGSSTNYADSVKGRFTISRDNAKNTVYLQMNSLKPEDTAVYYCAARYTARRQSYGYWGQGTQVTVSS” the “polyreactivity (PSR sort gate)” value was “high polyreactivity”.
